This is an account of results in US20110162109A1 (BASF PLANT SCIENCE, published 2011).

In series [1] the target is T1, HUB2, At1g55250, Arabidopsis thaliana (Arabidopsis thaliana, UniProt Q9C895 1-900).
T1 construct: As prey the endogenous protein of Arabidopsis cell culture; as bait N-terminal GS-TAP fusion; in yeast two-hybrid an AD fusion; also called AAG51572.1
T1 sequence: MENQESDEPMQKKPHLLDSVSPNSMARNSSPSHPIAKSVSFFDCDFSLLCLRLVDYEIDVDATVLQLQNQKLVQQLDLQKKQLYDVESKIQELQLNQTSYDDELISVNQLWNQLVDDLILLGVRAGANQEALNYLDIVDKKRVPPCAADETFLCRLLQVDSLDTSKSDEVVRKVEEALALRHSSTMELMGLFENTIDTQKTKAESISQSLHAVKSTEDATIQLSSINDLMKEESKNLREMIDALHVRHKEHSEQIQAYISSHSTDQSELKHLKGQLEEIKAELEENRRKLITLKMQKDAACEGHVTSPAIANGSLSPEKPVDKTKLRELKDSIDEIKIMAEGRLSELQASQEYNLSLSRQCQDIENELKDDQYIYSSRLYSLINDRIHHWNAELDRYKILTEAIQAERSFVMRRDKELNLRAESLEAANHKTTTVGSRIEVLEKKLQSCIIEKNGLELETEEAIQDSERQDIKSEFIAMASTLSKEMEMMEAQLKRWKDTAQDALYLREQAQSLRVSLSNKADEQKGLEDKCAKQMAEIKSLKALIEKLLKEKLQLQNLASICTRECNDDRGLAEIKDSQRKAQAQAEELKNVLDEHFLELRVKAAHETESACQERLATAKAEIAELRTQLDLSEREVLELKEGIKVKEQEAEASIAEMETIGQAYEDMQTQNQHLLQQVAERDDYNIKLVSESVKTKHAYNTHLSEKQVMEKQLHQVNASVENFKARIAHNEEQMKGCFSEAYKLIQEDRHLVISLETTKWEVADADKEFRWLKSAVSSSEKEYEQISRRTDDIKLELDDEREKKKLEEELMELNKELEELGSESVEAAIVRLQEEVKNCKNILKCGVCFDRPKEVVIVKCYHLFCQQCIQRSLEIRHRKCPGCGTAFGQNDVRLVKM
In words: tandem affinity purification with NTAP-tagged HUB1pm. As to the method:
Because the RING proteins have their functionally important domain at the C-terminus, an N-terminal fusion was prepared instead of the traditional C-terminal fusion by cloning both full length and the point mutant form of HUB1 (HUB1pm, HUB1fl). The Arabidopsis cell cultures were transformed with the two constructs and cultivated on 10 litre scale, harvested and purified by TAP (Van Leene et al., Mol. Cell. Proteomics 6, 1226-38, 2007). The protein extracts were separated on 1-D SDS-PAGE gels and isolated from gel for protein identification by mass spectrometry (Laukens et al., Proteomics. 4, 720-7, 2004, Van Leene et al., 2007). Two cut offs were used resulting in “confirmed” and “to be confirmed” candidate interactor lists (Table I).
In the data set of confirmed interactors TAP HUB1 and HUB2 were present, […] the dimer formation between the homologues. In addition, the acetyltransferase GCN5, RNA binding proteins and a KH domain protein were identified as HUB1 interacting proteins. Most of these proteins are known to be localized in nucleus or nucleoli. GFP constructs of HUB1 have also been localized to nucleus (Liu et al., 2007). When HUB1pm was used for TAP purification no HUB2 could be identified as an interacting protein.

B1: HUB1pm (HUB1 point mutant, Cys residues nr 1 and 2 of the C3HC4 RING domain changed into Ser) (enzyme)
chain: MASTGEPDRKRRHFSSISPSEAAAAVKKQPFFWPSSEDKLDTAVLQFQNLKLSQKLEAQQVECSILEDKLSQIKEKQLPYNSSLKTVHKSWEKLTASVESCSVRVSDSSSGAHRFVNKEDGSSPAVKNDFINRLLETGATESSSSNICSNQMEENGVNTSSQMTQTLYNLVAATEDLRCLKDELYPTVLRTNLGKDLCGQLALSELESEIKSFRGDLDDVLVKFKSLSRELQSHRDADAKVRVDLKRIRGELEDEVVELQQCNGDLSALRAERDATAGAFFPVLSLGNKLATSDRERDKQRDLQDMETVLKELTVLASGRLQQLKNLHEERTKMLGKMSNLQNKSKSVRCISSSQACLSLKDQLEKSKEAVFQYMALLEKLQVEKDSIVWKEREINIKNELGDVSRKTSAVTDSRMASLDSEIQKQLDEKMRIKTRLGNISRERGRKEIFADMKALISSFPEEMSSMRSQLNNYKETAGGIHSLRADVQSLSGVLCRKTKEYEALQLRSADYASQLGDLNATVCDLKNSHEELKLFLDMYKRESTDARDIAEAKEQEYRAWAHVQSLKSSLDEQNLELRVKAANEAEAVSQQMLAAAEAEIADLRQKMDDCKRDVAKHSDILKSKHEEHGTYLSEIQTIGSAYEDIVPQNQRLLLQVTERDDYNIKLFLEGITSRQMQDTLLIDKYIMDKDIQQGSAYASFLSKKSSRIEDQLRFCTDQFQKLAEDKYQKSVSLENLQKKRADIGNGLEQARSRLEESHSKVEQSRLDYGALELELEIERFNRRRIEEEMEIAKKKVSRLRSLIEGSSAIQKLRQELSEFKEILKSKASNDRPKEVVITKCYHLFCNPCVQKLTGTRQKKCPTCSASFGPNDIKPIYI
notes: In TAP N-terminally TAP-tagged; also called HUBpm; At2g44950 Arabidopsis thaliana point mutation
For the molecule B1, in the series with histone H2B, the “monoubiquitination of histone H2B in the in vitro ubiquitination assay (protein gel blot)” value is listed as “shift of H2B by 10 kDa”. For the same molecule, the binding result in series [1] was “no binding”.
